Substitutions are numbered along the chain they refer to.

For orientation: Kd means the equilibrium constant for the complex coming apart.

B1: clone MI407 anti-MSLN antibody (antibody, V domains shown)
VH: EVKLVESGGGLVKPGGSLKLSCAASGFPFSNYDMSWVRQTPEKRLEWVAYISSGGGNTYYPDTVKGRFTISRDNAKNTLYLQMSSLKSEDTALYFCVRQGTSVESYWYFDVWGAGTTVTVSS
VL: DIVLTQSPASLAVSLGQRATISCRASQSVSTSSSSYIHWYQQKPGQPPKLLIKYASNLESGVPARFSGSGSGTDFTLNIHPVEEDDTATYYCQHSWEIPFTFGSGTELEIKR
notes: also called M1407
B2: clone MI403 anti-MSLN antibody (antibody, V domains shown)
VH: EVQVVESGGGLVKPGGSLKLSCAASGFAFSSYDMSWVRQTPEKRLEWVAYISSGGGSTYYPDTVKGRFTISRDNAKNTLYLQMNSLKSEDTAMYYCARQGTAVKNYWYFDVWGAGTSVTVSS
VL: B1 VL with L4M, I37V, K43R, D85E, A88G, E107K
notes: also called M1403
B3: clone MI329 anti-MSLN antibody (antibody, V domains shown)
VH: EVMLVESGGDLVKPGGSLKLSCAASGFTFSSYAMSWVRRTPEKRLEWVATINSDGSYTFYPDSVKGRFTISRDNAKNTLYLQMNSLRSEDTAMYYCARWGENWYFDVWGAGTTVTVSS
VL: DVVMTQTPLSLPVSLGDQASISCRSSQSLVHSNGNTYLHWYLQKPGQSPKLLIYKVSNRFSGVPDRFSGSGSGTDFTLKISRVEAEDLGIYFCSQSTHFPRTFGGATKLELKR
notes: also called M1329
B4: clone MS502 anti-MSLN antibody (antibody, V domains shown)
VH: EVQLLESGGGLVQPGGSLRLSCAASGFTFSNYAMSWVRQAPGKGLEWVSGIPPDSGSKYYADSVRGRFTVSRDNSKNTLYLQMNSLRAEDTAVYYCAKNMLSFDYWGQGTLVTVSS
VL: QSVLTQPPSASGTPGQRVTISCTGSSSNIGSNAVSWYQQLPGTAPKLLIYYNSKRPSGVPDRFSGSKSGTSASLAISGLRSEDEADYYCGSWDSSLNGYVFGGGTKVTVLG
notes: SPR and FACS done with IgG: human IgG1 heavy chain constant region
B5: clone MS505 anti-MSLN antibody (antibody, IgG1, V domains shown)
VH: B4 VH with G50A, P52Y, S55G, G56S, S57N, R65K, K98R, M100A, L101Y, S102T
VL: B4 VL with Q16R, T23S, K54Q, V107L
notes: From a phage display synthetic scFv library
B6: clone MI323 anti-MSLN antibody (antibody, V domains shown)
VH: EVQLQQSGPELVKPGTSVKISCKASGYSFTSYFIQWVKQRPGQGLEWIGWIFPGSGNTKYNEMFKGKATLAADTSSSTAYMQLSSLTSEDSAVYFCARSGGYQYYFDYWGQGTSVTVSS
VL: DIVMTQSHKFMSTSVGDRVSITCKASQDVSTAVAWYQQKPGQSPKLLIYSASYRYPGVPDRFTGSGSGTDFTFTISSVQAEDLALYYCQQHYSTPWTFGGGTKLEIKR
notes: also called M1323
B7: clone 2-78-C2G4 antibody (antibody, V domains shown)
VH: B4 VH with L101F
VL: B4 VL with S94P
notes: IgG (human IgG1 heavy chain constant region; light chain constant region said to be human kappa)
B8: clone 2-30-C2G4 antibody (antibody, V domains shown)
VH: B4 VH with G56N, L101R, S102T
VL: B4 VL with S94P
notes: as for B7
B9: clone 2-73-C2G4 antibody (antibody, V domains shown)
VH: B4 VH with D54N, G56D
VL: B4 VL with S94P
notes: as for B7
B10: clone 2-30 (MS502 heavy chain variable region mutation antibody) (antibody, V domains shown)
VH: B4 VH with G56N, L101R, S102T
VL: B4 VL
notes: SPR done with IgG (human heavy chain constant region vector, MS502 light chain)
B11: clone 2-78 (MS502 heavy chain variable region mutation antibody) (antibody, V domains shown)
VH: B4 VH with L101F
VL: B4 VL
notes: as for B10
B12: clone 56-C2G4 antibody (antibody, V domains shown)
VH: B4 VH with G56A
VL: B4 VL with S94P
notes: as for B7
B13: clone 56 (MS502 heavy chain variable region mutation antibody) (antibody, V domains shown)
VH: B4 VH with G56A
VL: B4 VL
notes: as for B10
B14: clone MS501 anti-MSLN antibody (antibody, V domains shown)
VH: B4 VH with P52Y, K58T, R65K, V70I, K98R, M100I, L101Y, S102T
VL: B4 VL with T23S, S53N, K54Q, N97S, V107L
notes: as for B5
B15: clone MS504 anti-MSLN antibody (antibody, IgG1, V domains shown)
VH: B4 VH with G50S, P52Y, D54N, S55G, G56S, R65K, V70I, T91M, M100L, S102T
VL: B4 VL with T13P, S31N, A33S, N52D, K54H, S77G, S91A, S94D, G98A, V107L
notes: as for B5
B16: clone MS502-1 anti-MSLN antibody (antibody, V domains shown)
VH: B4 VH
VL: B4 VL with T23I, G24C, V107L
B17: clone MS506 anti-MSLN antibody (antibody, IgG1, V domains shown)
VH: B4 VH with G50S, P52Y, D54G, K58T, R65K, V70I, K98R, M100L, L101Y, S102T
VL: B4 VL with S35T, N52D, K54H, L79P, S91A, N97S, G98A, V107L
notes: as for B5
B18: clone MS503 anti-MSLN antibody (antibody, IgG1, V domains shown)
VH: B4 VH with G50S, P52Y, D54G, S55D, K58T, R65K, V70I, M100A, L101F, S102T
VL: B4 VL with T23S, K54H, S91T, N97S, V107L
notes: as for B5

In the first experiment the target is T1, human mesothelin (MSLN) on the cell surface (human, UniProt Q13421 296-598).
T1 construct: also called MSLN of mesothelioma (H226, H2052) and pancreatic cancer (AsPC-1) cell lines; MSLN on MiaPaCa-MSLN #2 cells
T1 sequence (Q13421 other isoform, or with tags, fused parts or gaps limits assumed): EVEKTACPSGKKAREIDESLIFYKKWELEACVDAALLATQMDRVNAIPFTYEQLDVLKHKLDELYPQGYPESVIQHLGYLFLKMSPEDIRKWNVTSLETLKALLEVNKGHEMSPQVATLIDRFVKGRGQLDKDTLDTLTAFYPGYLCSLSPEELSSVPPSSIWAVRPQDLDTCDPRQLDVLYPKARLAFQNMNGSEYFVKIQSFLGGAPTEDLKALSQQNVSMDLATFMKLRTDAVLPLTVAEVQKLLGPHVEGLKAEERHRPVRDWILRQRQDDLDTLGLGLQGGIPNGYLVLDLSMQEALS
Kind of experiment: FACS on MSLN stable cell line (#2), left panels; sheet note: 1st Ab 1 µg (1st assay), 2nd Ab anti-human Fc antibody FITC. The protocol: FACS test was performed on the MSLN present in the cell surface with regard to MiaPaCa-MSLN which is a cell line in which the MSLN was artificially expressed. Cells to be analyzed that were grown in a culture dish were separated by adding a Tryple Express solution and stored in a 50 mL tube, followed by centrifugation at 2000 rpm at room temperature for 3 minutes to decant the culture fluid, and the obtained product was washed once with PBS. The cells were suspended with FACS buffer, and transferred to a round bottom tube and centrifuged at 2000 rpm at room temperature for 3 minutes. The supernatant was discarded and the cells were well-loosened with the FACS buffer so as to have a cell density of 4×10⁵/mL. Then, 1 μg of candidate antibody was added thereto at 4° C. After 1 hour, the resultant material was washed with the FACS buffer twice, and goat-derived anti-human IgG antibody (FITC junction) was added in an amount of 1 μL for each sample to be combined at 4° C. for 30 minutes. The cells were collected by centrifugation at 2000 rpm for 3 minutes, and 500 μL of fixation buffer was added to resuspend the cells, and the cells were measured by FACS calibur (FIG. 6).
The FACS test was performed to evaluate whether the anti-MSLN antibody was selectively bound to the MSLN-overexpressing cell line (MiaPaCa-MSLN #2). The anti-MSLN candidate antibody was labeled by the method described in Example 4-2 above, and the cells were measured by FACS calibur (FIG. 7).
Consider B1, for which the “Mean, FL1-H” value worked out at 225.

Regarding B2, the “Mean, FL1-H” value was determined as 250.

With B3, the “Mean, FL1-H” value turned out to be 410.

With B4, the “Mean, FL1-H” value came out at 293.

Regarding B5, the “Mean, FL1-H” value came to 181.

With B6, the “Mean, FL1-H” value stood at 419.

The target in another experiment is T1, human mesothelin (MSLN) on the cell …. The experiment can be described thus: FACS on MiaPaCa-MSLN #2 cells, upper histogram and table.
B4: the “Mean, FL2-H” value stood at 2280.

Take B7: the “Mean, FL2-H” value is 2280.

As to B6, the “Mean, FL2-H” value was found to be 2880.

Another experiment deals with T2, recombinant human mesothelin (MSLN) (human, UniProt Q13421 296-580, limits assumed).
T2 construct: also called human MSLN; recombinant human MSLN
T2 sequence (Q13421 other isoform, or with tags, fused parts or gaps limits assumed): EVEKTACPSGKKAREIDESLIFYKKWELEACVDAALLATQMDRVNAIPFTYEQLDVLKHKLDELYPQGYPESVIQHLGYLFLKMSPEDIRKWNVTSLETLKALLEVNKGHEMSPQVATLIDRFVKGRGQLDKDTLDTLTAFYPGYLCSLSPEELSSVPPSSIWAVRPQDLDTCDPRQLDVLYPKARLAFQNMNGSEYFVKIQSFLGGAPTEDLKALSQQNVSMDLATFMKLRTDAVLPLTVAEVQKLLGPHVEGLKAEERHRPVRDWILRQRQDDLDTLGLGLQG
Kind of experiment: SPR, Biacore T-200; MSLN amine-coupled to CM5 chip, IgG in flow. Here is the method:
The quantitative binding force (affinity) of each of the purified anti-MSLN antibodies, i.e., MS502 clone heavy chain variable region mutation antibodies 56, 2-30, 2-73, 2-78, and the combination antibodies of the C2G4 light chain variable region and the heavy chain variable region mutation antibodies including 56-C2G4, 2-30-C2G4, 2-73-C2G4, 2-78-C2G4 with regard to recombinant human mesothelin (MSLN) was measured by using a Biacore T-200 (GE Healthcare, U.S.A.) biosensor. […] Then, the clone 56 antibody, the clone 2-30 antibody, the clone 2-73 antibody, the clone 2-78 antibody, the clone 56-C2G4 antibody, the clone 2-30-C2G4 antibody, the clone 2-73-C2G4 antibody, and the clone 2-78-C2G4 antibody serially diluted with HBS-EP buffer (10 mM HEPES, pH7.4, 150 mM NaCl, 3 mM EDTA, 0.005% surfactant P20) were allowed to flow at a concentration range of 0.078 nM to 5 nM and at a flow rate of 30 μL/min for association of 120 seconds and dissociation of 1800 seconds. The dissociation of the antibody bound to the MSLN was induced by flowing 10 mM Glycine-HCl pH 1.5 at a flow rate of 30 μL/min for 30 seconds (Table 17). The affinity was obtained as movement speed constants (Kₒₙ and Koff) and an equilibrium dissociation constant (KD) by using a Biacore T-200 evaluation software (Table 18).
Turning to B8, the Kd is 0.234 nM.

For the molecule B7, the Kd came out at 0.0372 nM.

Consider B9, for which the Kd was 0.165 nM.

In the case of B10, the Kd stood at 0.166 nM.

On to B11, for which the Kd is 0.0163 nM.

For the molecule B12, the Kd came out at 0.163 nM.

B13: the Kd was 0.125 nM.

In another experiment the target is T2, recombinant human mesothelin (MSLN). Described as above. The source holds these as a separate data set. Here is the method: Quantitative binding force (affinity) of the purified anti-MSLN antibodies, i.e., MI323, MI329, MI403, MS502 clone antibodies with regard to recombinant human mesothelin (MSLN) was measured by using a Biacore T-200 (GE Healthcare, U.S.A.) biosensor. […] Then, […] serially diluted with HBS-EP buffer (10 mM HEPES, pH7.4, 150 mM NaCl, 3 mM EDTA, 0.005% surfactant P20) was allowed to flow at a concentration range of 0.078 nM to 5 nM and at a flow rate of 30 μL/min for association of 120 seconds and dissociation of 1800 seconds. The dissociation of the antibody bound to the MSLN was induced by flowing 10 mM Glycine-HCl pH 1.5 at a flow rate of 30 μL/min for 30 seconds (Table 7). The affinity was obtained as movement speed constants (Kₒₙ and Koff) and an equilibrium dissociation constant (KD) by using a Biacore T-200 evaluation software (Table 8).
In the case of B2, the Kd amounted to 0.45 nM.

As for B3, the Kd stood at 0.035 nM.

Turning to B4, the Kd turned out to be 0.23 nM.

As for B6, the Kd amounted to 0.18 nM.

A further experiment has the same target. The experiment can be described thus: ELISA, clone supernatant on MSLN-coated plate. Here is the method:
Single colonies of a phage display synthetic scFv library final amplified population were collected, and cultured with 1.5 mL of SB/carbenicillin to an OD₆₀₀ of 0.8 to 1.0 at 37° C. and at 220 rpm, and then cultured with 1 mM IPTG at 30° C. and at 200 rpm for 12 hours or more. The reaction materials were centrifuged at 5500 rpm for 5 minutes, and only each supernatant was added to ELISA plates containing underlying MSLN antigen, and reacted at room temperature for 2 hours. Then, the resultant materials were washed with PBST (1×PBS, 0.05% tween 20) four times, and HRP/Anti-hFab-HRP conjugate diluted by 1/5000 with 1% BSA/1×PBS was added thereto, and reacted at room temperature for 1 hour, and washed with PBST (1×PBS, 0.05% tween 20) 4 times. Then, a TMB solution was added thereto and reacted for 5 to 10 minutes, and a TMB stop solution was added thereto. Next, O.D values were measured at a measurement wavelength of 450 nm using a TECAN sunrise, and clones having high O.D. value were secured as individual clones.
(In general: In an ELISA, binding on a coated surface is turned into a signal by an enzyme label.)
B14: the binding result is recorded as “binds”.

With B15, the binding result was “binds”.

Turning to B16, the binding result is “binds”.

Regarding B17, the binding result was “binds”.

With B18, the binding result is given as “binds”.

The values above are taken from patent publication US20180346588A1 (MOGAM INSTITUTE FOR BIOMEDICAL RESEARCH, published 2018).
